Biological target: mTurquoise-Tub1p (S. cerevisiae) (UniProt P09733)
Assay: FRET or BRET; sensitized emission FRET in living S. cerevisiae cells by confocal microscopy; mTurquoise donor, YFP acceptor; FRET index corrected for donor and acceptor bleed through and for the level of the donor (relative FRET index)

Sequence of UniProt P09733 (P09733 whole entry): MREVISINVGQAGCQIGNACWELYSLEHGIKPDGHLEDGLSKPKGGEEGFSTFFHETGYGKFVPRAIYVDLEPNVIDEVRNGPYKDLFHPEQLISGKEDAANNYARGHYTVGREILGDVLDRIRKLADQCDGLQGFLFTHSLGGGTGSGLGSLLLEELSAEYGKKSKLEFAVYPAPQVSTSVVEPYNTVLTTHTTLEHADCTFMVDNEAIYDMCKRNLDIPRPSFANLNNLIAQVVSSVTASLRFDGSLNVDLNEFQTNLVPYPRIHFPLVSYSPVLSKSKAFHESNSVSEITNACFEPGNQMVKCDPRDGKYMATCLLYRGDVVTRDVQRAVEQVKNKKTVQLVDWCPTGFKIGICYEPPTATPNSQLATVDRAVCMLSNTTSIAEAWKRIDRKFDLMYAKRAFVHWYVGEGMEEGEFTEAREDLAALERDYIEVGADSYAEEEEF

YFP-VirE2 (from UniProt P0A3W8 1-533) (natural protein)
relative FRET index: 11.9
